Reference: patent publication US12227570B2, “Anti-CEACAM6 antibodies and methods of use” (Singapore Health Services PTE LTD, priority 2016, dated 2025)
“And” between values parts separate entries of the source, which are not always exact repeats. Identical values can stand only once. “Also recorded” adds a separate entry of the source.

B1: GR6A04-MMAE (conjugate)
VH: SGPELVKPGASVKMSCKASGNTFTSYVMHWVKQKPGQGLEWIGYINPYNDGTKYNEKFKGKATLTSDKSSSTAYMELSSLTSEDSAVYYCARSTARATPYFYAMDYWGQGTSVTVSS
VL: DILMTQSPSSLAVTAGEKVTMRCKSSQSLLWSVNQNSYLSWYQLKQGQPPKLLLYGASIRESWVPDRFTGSGSGTDFTLTISNVHVEDLAVYYCQHNHGSFLPYTFGGGTKLEIK
B2: Hu-GR6A04: human chimeric mAb with GR6A04 VH and VL cloned into a human Ig constant region backbone, expressed in CHO cells (antibody, V domains shown)
VH: B1 VH
VL: B1 VL

Key:
A549−GR6A04+ cells [1] = assay: ADC dose-response, CellTiter-Glo viability assay; format: cell-based; settings: viability 4 days post treatment
Procedure: (§1) Cells were seeded into a black coated 96 well plate (Grenier Bio-one, UK) at a range of density from 1000-5000 cells per well (depending on the cell type used) and 90 μL per well. The plate was then incubated for 24 hours at 37° C. in humidified air with 5% CO2. After 24 hours, 10 μL of mAb or buffer was added to each well and the plate was again placed at 37° C. in humidified air with 5% CO2. 4 days after addition of mAb or buffer, 100 μL of CTG substrate (Promega, Wisconsin, USA) was added to each well. The plate was then left in the dark for 10 minutes, with vigorous shaking. The cell viability of the samples was then quantified using Tecan I-control (Tecan, Switzerland).
(§2) GR6A04 and a commercial mouse IgG1 isotype antibody (Clone MG1.45 from BioLegend) were directly conjugated with MMAE toxin (Moradec, San Diego, USA) at a DAR of 3.0 and 3.3 respectively. Dose-response curve for the conjugated mAbs were established with the CTG assay with a serial dilution range of 0 to 4.5 μg/ml. The cell viability of the cells was measure 4 days post treatment as described previously.

H1299 = assay: ADC dose-response, CellTiter-Glo viability assay; format: cell-based; settings: H1299 non-binding cells
Procedure: as §1, §2

PC-9 [2] = assay: ADC dose-response, CellTiter-Glo viability assay; format: cell-based; settings: viability 4 days post treatment
Procedure: as §1, §2

A549−GR6A04− populations = assay: ADC dose-response, CellTiter-Glo viability assay; format: cell-based; settings: A549−GR6A04− non-binding cells
Procedure: as §1, §2

PC-9 and A549 cells = assay: Flow cytometry binding of GR6A04 derivatives; format: cell-based
Procedure: Cells were harvested as single cell suspensions using trypsin. 1E5 cells were used per sample, and incubated with 100 μl of mAb culture supernatant for 30 min. Cells were then washed with 1% bovine serum albumin in PBS, and further incubated with 100 μl of goat anti-mouse antibody fluorescein isothiocyanate (FITC)-conjugated (1:500, DAKO, Denmark) for 15 min at 4° C. in the dark. Cells were again washed and resuspended in 200 μL of 1% BSA/PBS for analysis on Guava® easy Cyte 8HT Benchtop Flow Cytometer (Merck Millipore, USA). For interrogation of […] binding, cells were fixed with 4% PFA/PBS (Affymetrix, USA) at room temperature for 10 min, washed in PBS, and permeabilised with 0.1% triton/PBS for 5 min at room temperature, before proceeding with incubation with mAb supernatant/primary antibody. For staining with propidium iodide, PI was added to a final concentration of 5 μg/mL for 5 min just prior to analysis by the flow cytometer.

A549−GR6A04+ cells [3] = assay: Subcutaneous xenograft model; format: in vivo, NCr Nude mice; settings: for tumour growth versus buffer control: 10 mg/kg, 3 doses on D0, D4 and D8, start at tumour size >150 mm3
Procedure: Xenograft models were established using A549−GR6A04+ cells in NCr Nude mice. 5E6 cells in DMEM basal media were mixed at a 1:1 ratio with Matrigel, and injected subcutaneously at a volume of 200 μl. Tumours were allowed to form and reach a size of >150 mm^3, before they were randomised into 5 groups of 5 mice each. The groups were treated with mAbs as follows: (1) Buffer control; (2) GR6A04-MMAE; (3) Hu-GR6A04; (4) GR6A04; (5) MG1.45-MMAE isotype control. mAbs were injected via tail vein injection at a total volume of 100 μl. Each dose, were applicable, is at 200 μg (equivalent to 10 mg/kg), and treatment was done every 4 days, for a total of 3 doses (Day 0, 4 and 8). Tumour size was monitored over 50 days.

A549−GR6A04+ = assay: ADCC reporter bioassay (Promega, Luciferase reporter for FcγR); format: cell-based
Procedure: (§3) ADCC activity was measured using a reporter bioassay (Promega; ADCC Reporter Bioassay, #G7010). The ADCC bioassay was carried out according to the manufacturer's protocol Briefly, PC-9 and A549 cells were seeded at 5,000 cells per well in a 96-well clear bottom black tissue culture plates (Corning; #3904) in low 4% IgG-serum (Promega; #G711A) media and allowed to attach and spread overnight. Serial dilutions of Hu-GR6A04 were incubated in triplicate wells for approximately 15 min at 37° C., 5% CO2. Following incubation, engineered effector cells were added to the wells at approximately 150,000 cells per well. After 6 hours, Bio-Glo™ Luciferase Assay Substrate (Promega; #G719A and #G720A) was added to the wells and luminescence was measured using the Infinite® 200 microplate reader (Tecan).

PC-9 [4] = assay: as above; format: cell-based
Procedure: as §3

| Molecule | EC50 (A549−GR6A04+ cells [1]) [nM] | effect on cell growth (H1299) | EC50 (PC-9 [2]) | effect on cell growth (A549−GR6A04− populations) | flow cytometry binding (PC-9 and A549 cells) | tumour growth versus buffer control (A549−GR6A04+ cells [3]) | tumour growth (A549−GR6A04+ cells [3]; I.V. 10 mg/kg, every 4 days for 3 doses, throughout the 45 days of study) [fold] | EC50 (A549−GR6A04+) [nM] | EC50 (PC-9 [4]) [nM] |
| --- | --- | --- | --- | --- | --- | --- | --- | --- | --- |
| B1 | 3.33 | did not have an effect on cell growth | 19.8 nM and 19.6 nM | did not have an effect on cell growth | comparable to unconjugated GR6A04; also recorded: not affected after conjugation | little tumour growth | < 2 | – | – |
| B2 | – | – | – | – | comparable to GR6A04 | repression of tumour growth; also recorded: slower growth compared to the buffer control | – | 1.33 | 39.6 |
